For the experiment, the target named is mycGluA2 (recombinant) (UniProt P19491). The experiment is described as follows: co-IP with flag antibody, myc-GluA2 blot. To be noted: reference: wild type; sites Y421,Y466,Y482.

Take “flag-cortactin (recombinant) (from UniProt Q60598) Y421F/Y466F/Y482F (TYM)”: the “binding against the reference” value was “stronger”.

The values are drawn from PMC5841360.
